Data reported in a protein production outcome set (Wang et al. 2014).

assay: label from the status in PepcDB records
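Note: failed if final PepcDB status was selected cloned or expressed and not failed if soluble or beyond.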

Question: With “AIDENKQKALAAALGQIEKQFGKGSIMRLGEDRSMDVETISTGSLSLDIALGAGGLPMGRIVELYGPESSGKTTLTLQVIAAAQREGKTCAFIDAEHALDPIYARKLGVDIDNLLCSQPDTGEQALEICDALARSGAVDVIVVDSVAALTPKAEIEGEIGDSHMGLAARMMSQAMRKLAGNLKQSNTLLIFINQIRMKIGVMFGNPETTTGGNALKFYASVRLDIRRIGAVKEGENVVGSETRVKVVKNKIAAPFKQAEFQILYGEGINFYGELVDLGVKEKLIEKAGAWYSYKGEKIGQGKANATAWLKDNPETAKEIEKKVRELLLSNPNSTPDFSVDDSEGVAETNEDF” as the sequence, how does the protein production read?
Answer: not failed

Question: Which protein production does the source give for “AKGSMIQFDAPDGKKANAYMVKASSPSTKYVFLIHEWWGLNDYIKKDADKLYADLGGNVNIMALDLYDGKVTANRDSAAAYMGAASATRIGSILNGAFMFAGDKAEIISMGWCFGGGWALQSSILAGNKSKGTIMYYGMTEKDPVKLAGLKGDVLGIFGSKDKWINPEMVAAFDKDLTAAGKKHTIKSFDADHAFANPSNPQFNKAYTEEAWGMSVAFIKKAFG” here?
Answer: failed

Question: For “AKTWVLTNAEEGIDKGNWQINSDQLKVKDHAFSIEQKVLHGGKQEGSKILTIHSKDGLTITLSPTRGMNLLRIEGFGSRMGWDSPVKEVVNPAFINLESRNGLGWLEGFNEMMVRCGYEWTGHPVTADGQIYTLHGKAGNTPASLVEVEVADSAPYEIRIRGLVKESTFKKADLQTLTELRYVPGSNSFSLHDVLTNHADYPHDYQIIYHSNFGTPILEEGARFLAPISSISPFNDYAKSGLKTWQTYQGPTKDFDEMVFNIQPLADENHQTLAAVVNKAGDKGASIQFDTRQLPVLTLWKNTDTVKQGYVTGIEPGTSYAYPVTIERKQKRVKQLQPGASAQFDLTYTLLHDSAQVAAVEQKIAKIQGDNKVAENETPIAKE”, which protein production is on record?
Answer: not failed

Question: Which protein production does the source give for “ALGVGRSGAMDQTALSQANRIVGNPDHAAVIEILNGGLKLKVLQSTVVAVTGAASHIGVSYAGQAQVKVPDYSPIALDCGDLLYIDSPHAGLRHYLAIRGGIKTEKILGSASFDTLAELGTPPLKPHDFIYSAELSVGSVLLHEKCAQQLPKIGDVVEVDVILGPRTDWFEPESLTQFFQQQWLVTQESNRIGLRLSAGLPLKRQIHGELASEGTCTGALQIPPNGQPVLFMNDHPLTGGYPVLGAIAIDHLDRVAQIPPGCLIQFRQKSEILDLDKEST” here?
Answer: failed

Question: With “ALKQKIIGNGEKRVVTYAPTWREDDFISVGHYHFRWHFSLKKMMGLLPEDVMLLIRPHYLVTDRIDIKGFEDRVVIDSTTDMNEIYLITDLMVTDYSSVMFDFAILKRPMLFFAYDLEYYRDDLRGFYFDYYTELPGSIVTDETHLLAEIDQLLQNNFAELDPERFNKFAKRFVSWERGTAAQQVIEKINYRRDEK” as the sequence, how does the protein production read?
Answer: failed

Question: Which protein production does the source give for “ALSGSSGYKFGVLAKIVNYMKTRHQRGDTHPLTLDEILDETQHLDIGLKQKQWLMTEALVNNPKIEVIDGKYAFKPKYNVR” here?
Answer: not failed

Question: For “ALSSLNIIHIAAPHLEALNIATGETINFSSREDDHAILIYKLEPTTGMLRTRAYIGQHMPLYCSAMGKIYMAFGHPDYVKSYWENHQHEIQPLTRNTITELPAMFDELAHIRESGAAMDREENELGVSCIAVPVFDIHGRVPYAVSISLSTSRLKQVGEKNLLKPLRETAQAISNELGFTVRDDLGAIT”, which protein production is on record?
Answer: not failed

Question: Which protein production does the source give for “ALVNIVVTNRCDLSCFYCFFYAERAGYIYEPSIEQIKFMVRQVARQRQGSDVHVNIQITGGEPTVREDLVDVVKAIREAGAHYIQLNTNGINVARRYLDNPPGAIDYVRSLREAGVSVVYMSFDGVTPKVNWKNHYEAPFALKAFQEGGLDNVVLVPTVIRTINDHEVGDIIRFAGKHIDVVRGVNFQPVSLTGM” here?
Answer: failed

Question: For “ANLYWFRADWFERPDLKKKFKDKYGYELGVPVNWSAYEDIAKFFSEDVKEIDGKKVFGHMDYGKKDPSLGWRFTDAWFSMAGSGDKGLPNGLPVDEWGIRVEDCHPVGSSITRGGDTNGPAAVFATQKYIDWLKAYAPPEAAGMTFSESGPVPSQGNVAQQIFWYTAFTADMTKPGLPVMNADGTPKWRMAPSPKGPYWKEGMKLGYQDVGSWTFLKSSDEKKRLAAWLYAQFVTSKSVSLKKTIVGLTPIRESDINSK”, which protein production is on record?
Answer: failed

Question: With “APAEIFNVVKYPAKLGDMYAYLTPPPANKKNKLPAVIWLNGGYGGIGGDDYFWTPQPVENDQTGATFRDPNMVLMIPSFRGENTNPGRYEMFYGELEDLDSAREYLASLPYVDPKRIYVVGHSTGGTRALLASEYSDKFRAIFSLGGIPDLKLRTEGRMMVELPFDKNNEEEFNVRSVYRYIKSIKTPTFYFEGHDYFWDEFNELRVVAMEHDIPLKIYNIKNGDHFNIIVPVSQLIKEKILQDTDTNKESNIRFTNEEIKWINKMVK” as the sequence, how does the protein production read?
Answer: failed

Question: For “AQKLSATSRILSSSRGPAPDDIADFFGTDRAAQHITLRRLRLGNGRPYAIDNGWYNSEFAPDLLENDVYNSVYSILDRVYGVPVTQAEQTVTAVAADEDTARLLDVTPGAPLLRILRQSLSGDKPVEWCVSLYRTDRYSLKTLVTRSEDL”, which protein production is on record?
Answer: not failed

Question: With “AQTRLLIQNRLVAQRDEFDNVFHSIRDGVITYDTDFRIHFTNRSLLKMLHLPKDEAARPYEGLPAGSIFKIYNNGKEILRPMLKQVVTEESSVVIPENSFMQEVHSGSYFPVSGEVVPIRAHGKITGMALSARNIS” as the sequence, how does the protein production read?
Answer: failed

Question: Which protein production does the source give for “ARGHRHTCKVMVLKEEAAGSERALALDMREGQRVFHSLIVHFENDIPVQIEDRFVNAQVAPDYLKQDFTLQTPYAYLSQVAPLTEGEHVVEAILAEADECKLLQIDAGEPCLLIRRRTWSGRQPVTAARLIHPGSRHRLEGRFTK” here?
Answer: not failed

Question: With “ARYLDVTSRRDPEHSHRTYYVTGQVFFASADRFTASFDLREKVETLAIDLREAHFWDITAVAALDKVVLKLRRAGISVDVVGMNRATATLVDRFGVHDKPDGIDSLMGH” as the sequence, how does the protein production read?
Answer: failed

Question: For “ASLKDFELSKMLEKVAKESSVGTPRAINEDILDQGYTVEGNQLINHLSVRASHAERMRSNPDSVRSQLGDSVCSNTGYRQLLARGAILTYSFTEYKTNQPVATERFDAGSCRIQGKK”, which protein production is on record?
Answer: not failed

Question: With “ASNSQLNAMAHQIQEMFPQVPYHLVLQDLQLTRSVEITTDNILEGRIQVPF” as the sequence, how does the protein production read?
Answer: not failed

Question: For “ASTVHEMGVFASLDDAVAAAKRAQQGLKSVAMRQLAIHAIREAGEKHARELAELAVSETGMGRVDDKFAKNVAQARGTPGVECLSPQVLTGDNGLTLIENAPWGVVASVTPSTNPAATVINNAISLIAAGNSVVFAPHPAAKKVSQRAITLLNQAVVAAGGPENLLVTVANPDIETAQRLFKYPGIGLLVVTGGEAVVDAARKHTNKRLIAAGAGNPPVVVDETADLPRAAQSIVKGASFDNN”, which protein production is on record?
Answer: failed

Question: Which protein production does the source give for “ATEATNATNNQSTQVSQATSQPINFQVQKDGSSEKSHMDDYMQHPGKVIKQNNKYYFQTVLNNASFWKEYKFYNANNQELATTVVNDNKKADTRTINVAVEPGYKSLTTKVHIVVPQINYNHRYTTHLEFEKAIPTLADAAK” here?
Answer: not failed

Question: For “ATGTTGGGCATGATCAGGAACTCACTGTTCGGGAGCGTGGAAACGTGGCCTTGGCAGGTTCTAAGCACCGGGGGCAAGGAAGATGTCTCCTATGAGGAAAGAGCCTGTGAAGGGGGCAAGTTTGCTACTGNGGAAGTGACAGACAAGCCAGTGGATGAGGCTCTCCGGGAAGCGATGCCCAAGATCATGAAGTATGTGGGTGGCACCAATGACAAAGGAGTCGGCATGGGTATGACAGTCCCTGTCTCTTTTGCCGTGTTTCCCAATGAAGATGGCTCCCTACAGAAGAAACTGAAAGTCTGGTTCCGGATTCCGAACCAATTTCAAGGCAGCCCACCGGCCCCCAGTGACGAGAGTGTGAAGATCGAGGAACGGGAGGGCATCACTGTCTATTCCACGCAATTTGGAGGCTATGCCAAGGAAGCAGACTATGTTGCTCATGCCACCCAGCTACGGACCACACTGGAGGGCACACCAGCGACCTACCAGGGTGATGTCTACTACTGTGCCGGATATGACCCTCCCATGAAGCCCTATGGACGCCGTAACGAGGTCTGGCTTGTGAAGGCATGA”, which protein production is on record?
Answer: not failed

Question: For “AVEARQSATEAERRRHRLEQILKTVPSCVVQLDRDGQFVFANQRAIDVLGLSQSELKDRLYNDPEWEIRDLDGHPIPDAELPFRQVLETGQPLSDARHTIHWPDGTEKVLSVNGAPLFDDDGAVESVVCTLTDIT”, which protein production is on record?
Answer: not failed

Question: For “AWQAAVASNEPFGEAQLAQRIRRYLPEQGQLFVGNSLVVRLIDALAQLPAGYPVYSNRGASGIDGLIATAAGVQRASARPTLAIVGDLSALYDLNSLALLRQASAPLVLIVVNNNGGQIFSMLPTPQDERRQFYLMPQDVDFSHAAVMFGLAYHRPDDWPSLDEALAGAWRRAGATVIELAVNETDGAQTLQQLLAQVSRL”, which protein production is on record?
Answer: failed

Question: Which protein production does the source give for “AYPGFELDIDLALPGRGVTALFGHSGSGKSTCLRCIAGLEKAAEGEVTINGETWQDSRRNLFVAPHRRALGYVFQDANLFRHLTVRRNLAFGLKRIAAAERRVELEQACALLGIEHLLERMPERLSGGEQQRVGIARALLTSPRLLLMDEPLASLDLKRKGEILPYLERLHEELDIPVLYVSHSPDEVARLADHLVLLENGKVRASGPIGETLARVDLPLALDDDAGVVIEGTVSDHDPAYGLLTLVLPGSALQMRVAHAPLAPGKRLRFKVQARDVSLNLRDDAQSSILNRLPVRVLELVDTDTAAHVLVRLDAGGNPLLARITRYSRDQLQLR” here?
Answer: failed

Question: Which protein production does the source give for “CAAIAALSAVGLPSDRFSFEGFLPSKSSQRLLQLEKLKDETQTLIFYEAPHRILDCVTDMMHIFGEDRPVGFAREITKTFETIKKMTLKELVSFIQNDHHQQKGEIVLIVGGNPVNK” here?
Answer: failed

Question: Which protein production does the source give for “CLEDILSATKMVINLCLPQFRPRIHCNKISADGYEVENLISEDLTKRSHGFRTEYFIKPPVYVTVSFPFNVEICRINIDLTAGGGQNVTGLEMYTSASSSRVSWNTPQCRTLGPAEPSVPDKEAFTLVGKVLLKNQSQVVFSHRGFKARPPFGAMEATLPSPAVVAQELWNKGALSLSHVAHLRICITHVTGGGIPCIKRLEVWGQPAKTCSQEVIDSILLVTSENLPQDVALQAPALPMESDCDPGDQPESQQAPSSLQKLAEIIQDVPEEFLDPITLEIMPCPMLLPSGKVIDQSTLEKCNRSEATWGRVPSDPFTGVAFTPHSQPLPHPSLKARIDHFLLQHSIPGCHLLGRAQTALAVIPSSIVLPSQKRKIEQAEHVPDSNFGVNASCFSATSPLVLPTTSEHTAKKMKATNEPSLTHMDCSTGPLSHEQKLSQSLEIALASTLGSMPSFTARLTRGQLQHLGTRGSNTSWRPGTGSEQPGSILGPECASCKRVFSPYFKKEPVYQLPCGHLLCRPCLGEKQRSLPMTCTACQRPVASQDVLRVHF” here?
Answer: not failed

Question: Which protein production does the source give for “CSACGETVMPGSRKLEYGGQTWHEHCFLCSGCEQPLGSRSFVPDKGAHYCVPCYENKFA” here?
Answer: not failed

Question: Which protein production does the source give for “CSPVRERRLEHQLEPGDTLAGLALKYGVTMEQIKRANRLYTNDSIFLKKTLYIPILTEPRDLFN” here?
Answer: not failed

Question: Which protein production does the source give for “DAHSTIDSRIIHFKLEFANEFLAEKLQVALQSPVYNIYRLRIIDGKPYVLEQTYMSTDVIPGITEDILQKSIYNYIEGKLGLHIASATKILRASSSSENEQHYLQLLPTEPVFEVEQVAYLDNGTPFEYSISRHRYDLFE” here?
Answer: not failed

Question: With “DAPQGAVIILPGDAESPDWPDTVGPLRRKFPDVGWSSLSITLPDAQDNTLLPREPDAAAGDANAAKPEETPKDAAAKAPDPAAEAEALAAVATAKAAADEERNKAQAELIFARIESAISFAQQNKARNIVLLGHSSGAYWAARFLNERPSPAVQKLVMVAA” as the sequence, how does the protein production read?
Answer: failed

Question: For “DARKGNASAPVVAVEFFDYQCGYCKGALPELAAALSGRNDVAVVMKEFPILGSTSEAAARLALAVRAEHGDEAYLGFHNALLSHKGGLNEAALSILAGAAGYDYPALVARGRQDDITSIIDGNRRLAQALSISGTPAFVFRDGEVVPGMMAADRLTAAFDRLSASTAAAQ”, which protein production is on record?
Answer: failed
